The values below come from US20240043504A1 (published 2024).

Common to all, as to assay: Luminex, supernatant
The target in assay [1] is T1, MERS-CoV (NCoV/Novel coronavirus) Spike Protein S1 Protein (aa 1-725, His Tag) (Sino 40069-V08B1) (MERS-CoV, UniProt K9N5Q8 18-725).
T1 sequence: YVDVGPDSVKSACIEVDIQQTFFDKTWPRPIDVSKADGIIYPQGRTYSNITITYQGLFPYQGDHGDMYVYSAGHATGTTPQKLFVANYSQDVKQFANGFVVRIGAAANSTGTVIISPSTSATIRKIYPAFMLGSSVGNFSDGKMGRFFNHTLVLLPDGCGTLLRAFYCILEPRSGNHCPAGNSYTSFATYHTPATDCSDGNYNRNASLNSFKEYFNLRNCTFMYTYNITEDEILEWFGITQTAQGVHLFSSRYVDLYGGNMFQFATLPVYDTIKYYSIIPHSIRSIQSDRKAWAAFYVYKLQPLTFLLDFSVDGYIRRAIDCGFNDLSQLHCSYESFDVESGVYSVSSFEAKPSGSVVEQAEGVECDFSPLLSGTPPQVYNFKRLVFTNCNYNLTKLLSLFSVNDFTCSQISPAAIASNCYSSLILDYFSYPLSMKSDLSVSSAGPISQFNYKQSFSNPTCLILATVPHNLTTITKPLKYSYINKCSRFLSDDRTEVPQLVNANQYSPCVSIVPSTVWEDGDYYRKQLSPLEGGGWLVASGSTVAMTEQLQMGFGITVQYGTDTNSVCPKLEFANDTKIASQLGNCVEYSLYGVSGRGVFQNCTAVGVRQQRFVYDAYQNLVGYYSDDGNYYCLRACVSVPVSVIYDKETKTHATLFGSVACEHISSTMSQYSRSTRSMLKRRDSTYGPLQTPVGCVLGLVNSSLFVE

Assay [2] deals with SARS-CoV-2 Spike Protein (RBD)(R319-F541).mFc (SARS-CoV-2).
Assay [3] addresses SARS-CoV-2 Spike Protein (RBD)(R319-F541).hFc (SARS-CoV-2).
Assay [4] deals with T2, MERS-CoV Spike Protein (ECD, aa 1-1297, His Tag) (Sino 40069-[change]) (MERS-CoV, UniProt K9N5Q8 18-1297).
T2 sequence: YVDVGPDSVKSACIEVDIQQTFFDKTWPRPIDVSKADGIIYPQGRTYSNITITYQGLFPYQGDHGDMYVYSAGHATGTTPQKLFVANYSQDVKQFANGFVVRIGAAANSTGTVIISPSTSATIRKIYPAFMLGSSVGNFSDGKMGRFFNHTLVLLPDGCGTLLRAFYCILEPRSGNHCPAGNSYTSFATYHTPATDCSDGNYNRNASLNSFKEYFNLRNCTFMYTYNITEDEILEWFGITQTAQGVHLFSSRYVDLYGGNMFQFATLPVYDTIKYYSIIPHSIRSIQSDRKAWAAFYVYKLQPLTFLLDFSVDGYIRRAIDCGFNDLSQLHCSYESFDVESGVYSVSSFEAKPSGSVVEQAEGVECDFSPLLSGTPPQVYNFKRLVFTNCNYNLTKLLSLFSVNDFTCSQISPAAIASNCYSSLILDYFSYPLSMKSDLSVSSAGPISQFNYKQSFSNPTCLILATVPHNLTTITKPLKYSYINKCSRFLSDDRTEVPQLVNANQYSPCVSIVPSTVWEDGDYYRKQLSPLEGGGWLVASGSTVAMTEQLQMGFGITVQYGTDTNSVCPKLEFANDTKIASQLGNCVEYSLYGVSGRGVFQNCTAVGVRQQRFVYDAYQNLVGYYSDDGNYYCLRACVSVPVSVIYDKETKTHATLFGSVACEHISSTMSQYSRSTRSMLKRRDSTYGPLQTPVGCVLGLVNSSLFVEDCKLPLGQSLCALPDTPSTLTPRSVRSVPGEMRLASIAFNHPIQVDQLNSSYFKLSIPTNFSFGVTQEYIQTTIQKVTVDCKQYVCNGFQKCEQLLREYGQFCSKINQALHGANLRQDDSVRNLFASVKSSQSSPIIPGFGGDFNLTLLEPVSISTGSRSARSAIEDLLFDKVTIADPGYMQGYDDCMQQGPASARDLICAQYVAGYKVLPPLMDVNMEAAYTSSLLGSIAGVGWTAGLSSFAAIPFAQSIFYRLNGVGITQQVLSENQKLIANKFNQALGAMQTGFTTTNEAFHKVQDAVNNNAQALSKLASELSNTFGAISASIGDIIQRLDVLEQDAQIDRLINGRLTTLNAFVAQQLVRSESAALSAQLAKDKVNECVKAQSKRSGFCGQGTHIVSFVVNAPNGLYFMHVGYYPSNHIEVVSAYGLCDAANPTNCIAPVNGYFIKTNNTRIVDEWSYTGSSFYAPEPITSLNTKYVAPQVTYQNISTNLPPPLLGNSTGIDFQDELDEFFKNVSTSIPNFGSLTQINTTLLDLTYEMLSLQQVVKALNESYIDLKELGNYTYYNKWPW

The target of assay [5] is T3, MERS-CoV (NCoV/Novel coronavirus) Spike Protein fragment (RBD, aa 367-606, His Tag) (Sino 40071-V08B1) (MERS-CoV, UniProt K9N5Q8 367-606).
T3 sequence: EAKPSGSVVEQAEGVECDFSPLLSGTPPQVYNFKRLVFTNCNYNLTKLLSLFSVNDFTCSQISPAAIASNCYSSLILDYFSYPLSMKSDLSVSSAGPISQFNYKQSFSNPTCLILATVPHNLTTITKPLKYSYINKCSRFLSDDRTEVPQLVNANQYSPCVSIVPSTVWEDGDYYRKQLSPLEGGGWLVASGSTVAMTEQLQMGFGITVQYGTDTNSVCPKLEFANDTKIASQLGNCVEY

Assay [6] concerns the target Human SARS Coronavirus Spike S1 Subunit Protein (His Tag) (Sino 40150-V08B1) (Human SARS Coronavirus, UniProt P59594 14-667).
The target in assay [7] is T4, MERS-CoV Spike Protein S2 (aa 726-1296, His Tag) (Sino 40070-[change]) (MERS-CoV, UniProt K9N5Q8 726-1296).
T4 sequence: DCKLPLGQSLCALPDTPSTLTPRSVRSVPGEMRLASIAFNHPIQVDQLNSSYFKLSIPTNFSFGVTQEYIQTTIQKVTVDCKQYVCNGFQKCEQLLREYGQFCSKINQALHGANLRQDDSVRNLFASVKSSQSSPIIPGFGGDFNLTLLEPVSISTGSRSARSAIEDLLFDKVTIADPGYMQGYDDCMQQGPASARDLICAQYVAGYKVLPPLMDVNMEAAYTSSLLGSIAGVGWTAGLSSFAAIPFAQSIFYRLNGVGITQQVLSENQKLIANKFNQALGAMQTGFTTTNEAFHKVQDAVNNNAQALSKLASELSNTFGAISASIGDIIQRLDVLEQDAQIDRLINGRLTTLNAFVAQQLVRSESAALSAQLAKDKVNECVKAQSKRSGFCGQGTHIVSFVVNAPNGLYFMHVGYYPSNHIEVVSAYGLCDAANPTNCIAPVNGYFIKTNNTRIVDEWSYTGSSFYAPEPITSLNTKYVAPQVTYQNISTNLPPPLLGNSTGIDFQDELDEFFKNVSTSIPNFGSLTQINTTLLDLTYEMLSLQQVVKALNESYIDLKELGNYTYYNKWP

B1: mAb10934 (antibody, V domains shown)
VH: not shown
VL: DIQMTQSPSSLSASVGDRVTITCQASQDIWNYINWYQQKPGKAPKLLIYDASNLKTGVPSRFSGSGSGTDFTFTISSLQPEDIATYYCQQHDDLPPTFGQGTKVEIKR
Regarding B1, the MFI in assay [1] was 20 MFI; in assay [2], 34300 MFI; in assay [3], 35800 MFI; in assay [4] it was 15 MFI; in assay [5], 24 MFI.

B2: mAb10935 (antibody, V domains shown)
VH: EVQLVESGGGLVQPGGSLRLSCAASGFTVSSNYMSWVRQAPGKGLEWVSLIYSGGSTYYADSVKGRFTISRHNSKNTLYLQMNSLRSEDTAVYYCARVPLGDYYYGMDVWGQGTTVTVSS
VL: DIQMTQSPSSLSASVGDRVTITCQASQDINKYLNWYQQKPGKAPKLLIYDASNLETGVPSRFSGSGSGTDFTFTISSLQPEDIATYYCQQSDNLPLTFGGGTKVEIKR
Consider B2, for which the MFI was determined as 21 MFI in assay [6]; 35900 MFI in assay [2]; 18 MFI in assay [7]; 35600 MFI in assay [3]; 15 MFI in assay [4]; 25 MFI in assay [5].

B3: mAb10913 (antibody, V domains shown)
VH: EVQLVESGGGLVQPGGSLRLSCAASGFTFRNYEMNWVRQAPGKGLEWVSYITSSGSTMYYADSVKGRFTISRDNAKNSLYLQMNSLRAEDTAVYYCARDGFYYYYAMDVWGQGTTVTVSS
VL: QSVLTQPPSVSAAPGQKVTISCSGSSSNIGNNYVSWYQQLPGTAPKLLIYDNNKRPSGIPDRFSGSKSGTSATLGITGLQTGDEADYYCGTWDSSLSVGRVFGTGTKVTVLG
Regarding B3, the MFI was 21 MFI in assay [6]; 26 MFI in assay [1]; 33000 MFI in assay [2]; 26 MFI in assay [7]; 31900 MFI in assay [3]; 20 MFI in assay [4]. This molecule gave an MFI in assay [5] of 34 MFI.

B4: mAb10914 (antibody, V domains shown)
VH: EVQLVESGGGLVQPGGSLRLSCAASGLIVSRNYMIWVRQAPGKGLEWVSVIYSGGSTFYADSVKGRFTISRHNSKNTLYLQMNSLRAEDTAVYYCARDLGTGGMDVWGQGTTVTVSS
VL: DIQLTQSPSFLSASVGDRVTITCWASQGISSYLAWYQQKPGKAPKLLIYAASTLQSGVPSRFSGSGSGTEFTLTISSLQPEDFATYYCQQLNSYPLTFGGGTKVEIKR
In the case of B4, the MFI worked out at 22 MFI in assay [6]; 23 MFI in assay [1]; 30700 MFI in assay [2]; 28 MFI in assay [7]; 30500 MFI in assay [3]; 19 MFI in assay [4]. The MFI in assay [5] is 31 MFI.

B5: mAb10936 (antibody, V domains shown)
VH: QVQLVESGGGVVQPGRSLRLSCAASGFTFRNYGMHWVRQAPGKGLEWVSVIWYDGSNRYYADSVKGRFTISRDTSKNTLYLQMNSLRAEDTAVYYCARDPPITGTTGGDAFDIWGQGTMVTVSS
VL: not shown
Regarding B5, the MFI in assay [6] came out at 20 MFI; in assay [1] it was 20 MFI; in assay [2] it was 33700 MFI; in assay [7], 21 MFI; in assay [3], 33900 MFI; in assay [4], 19 MFI. The molecule further returned an MFI in assay [5] of 29 MFI.

B6: mAb10921 (antibody, V domains shown)
VH: EVQLVESGGGLVQPGGSLRLSCAASGITVSSNYMSWVRQAPGKGLEWVSVIYSGGSTFYADSVKGRFTISRHNSKNTLYLQMNSLRAEDTAVYYCARERNFDAFDIWGQGTMVTVSS
VL: DIQMTQSPSSVSASVGDRVTITCRASQGISSWLAWYQQKPGKAPKLLIYAASSLQSGVPSRFSGSGSGTDFTLTISSLQPEDFATYYCQQANSFPLFTFGPGTKVDIKR
For the molecule B6, the MFI in assay [6] worked out at 19 MFI; in assay [2], 19400 MFI; in assay [7], 19 MFI; in assay [3] it was 22300 MFI; in assay [4], 19 MFI; in assay [5], 23 MFI.

B7: mAb10985 (antibody, V domains shown)
VH: EVQLVESGGGLVQPGRSLRLSCAASGFTFDDYAMHWVRQAPGKGLEWVSGISWNRGSIGYADSVKGRFTISRDNAKNSLYLQMSSLRAEDTALYYCAKDGERWDSVVVPSARNGMDVWGQGTTVTVSS
VL: QSVLTQPPSVSGAPGQRVTISCTGSSSNIGAGYDVHWYQQLPGTAPKLLIYGNSNRPSGVPDRFSGSKSGTSASLAITGLQAEDEADYYCQSYDSSLSGSYVFGTGTKVTVLG
On to B7, for which the MFI in assay [6] was 22700 MFI; in assay [1] it was 22 MFI; in assay [2] it was 29400 MFI; in assay [7], 28 MFI; in assay [3], 31100 MFI; in assay [4], 18 MFI. Also, the MFI in assay [5] came out at 31 MFI.

B8: mAb10986 (antibody, V domains shown)
VH: EVQLVESGGGLVQPGGSLRLSCAASEFTVSSNYMSWVRQAPGKGLEWVSVIYSGGSTFYADSVKGRFTISRDNSKNTLYLQMNSLRAEDTAVYYCARALPYGDLHFDYWGQGTLVTVSS
VL: QSVLTQPPSVSGAPGQRVTISCTGSSSNIGTGYDVHWYQQLPGTAPKLLIYGNTNRPSGVPDRFSGSKSGTSASLAITGLQAEDEADYYCQSYDSSLSDSYVFGTGTKVTVLG
In the case of B8, the MFI in assay [6] is 21 MFI; in assay [1] it was 20 MFI; in assay [2] it was 28400 MFI; in assay [7], 19 MFI; in assay [4] it was 15 MFI; in assay [5], 27 MFI.
